We go through 2 molecules from publication PMC6561178, “Caulobacter crescentus Hfq structure reveals a conserved mechanism of RNA annealing regulation”.

Series [1] has as its target T1, Ec65 (Escherichia coli, UniProt P0A6X3 1-65, del66-102). Put plainly: EMSA; Hill n 1.6; EMSA: 34 mM Tris-HCl pH 7.5, 50 mM NaCl, 50 mM KCl, 50 mM NH4Cl, 11.4 mM EDTA, 12% glycerol, 30 C, 30 min, ~1 nM 32P-RNA, Kd in Hfq6; anisotropy: 10 mM Tris-HCl. The conditions noted are these: protein: recombinant; tags: untagged; chain copies: 6; label: 32P; stem-loops.
Series [2] concerns the target T2, EcCc Hfq (Escherichia coli / Caulobacter …, UniProt P0A6X3 1-67+B8GW92:71-82, internal_change). The series is described as above. Conditions: protein: recombinant; tags: untagged; chain copies: 6; label: 32P; stem-loops.
Series [3] addresses T3, Ec Hfq (Hfq102) (Escherichia coli, UniProt P0A6X3 1-102). As to the kind of experiment: EMSA; Hill n 1.0; Tris-glycine gel; EMSA: 34 mM Tris-HCl pH 7.5, 50 mM NaCl, 50 mM KCl, 50 mM NH4Cl, 11.4 mM EDTA, 12% glycerol, 30 C, 30 min, ~1 nM 32P-RNA, Kd in Hfq6; anisotropy: 10 mM Tris-HCl. The conditions noted are these: protein: recombinant; tags: untagged; chain copies: 6; label: 32P; stem-loops. In general terms: A gel shift assay detects complexes by their altered migration in electrophoresis.

Series [4] has as its target T4, Cc78 (Caulobacter crescentus NA1000, UniProt B8GW92 1-78, del79-82).
T4 sequence: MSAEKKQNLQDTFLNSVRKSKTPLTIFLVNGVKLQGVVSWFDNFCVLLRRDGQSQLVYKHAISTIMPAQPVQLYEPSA
As to the kind of experiment: EMSA; Hill n 1.4; EMSA: 34 mM Tris-HCl pH 7.5, 50 mM NaCl, 50 mM KCl, 50 mM NH4Cl, 11.4 mM EDTA, 12% glycerol, 30 C, 30 min, ~1 nM 32P-RNA, Kd in Hfq6; anisotropy: 10 mM Tris-HCl. Conditions: protein: recombinant; tags: untagged after self-cleaved intein; chain copies: 6; label: 32P; stem-loops.

For series [5], the target named is T3, Ec Hfq (Hfq102). As to the kind of experiment: EMSA; Hill n 8.2; Tris-glycine gel; EMSA: 34 mM Tris-HCl pH 7.5, 50 mM NaCl, 50 mM KCl, 50 mM NH4Cl, 11.4 mM EDTA, 12% glycerol, 30 C, 30 min, ~1 nM 32P-RNA, Kd in Hfq6; anisotropy: 10 mM Tris-HCl. Conditions: protein: recombinant; tags: untagged; chain copies: 6; label: 32P; stem-loops.
In series [6] the target is T4, Cc78. As to the kind of experiment: EMSA; Hill n 1.3; EMSA: 34 mM Tris-HCl pH 7.5, 50 mM NaCl, 50 mM KCl, 50 mM NH4Cl, 11.4 mM EDTA, 12% glycerol, 30 C, 30 min, ~1 nM 32P-RNA, Kd in Hfq6; anisotropy: 10 mM Tris-HCl. Conditions: protein: recombinant; tags: untagged after self-cleaved intein; chain copies: 6; label: 32P; stem-loops.
Series [7] has as its target T2, EcCc Hfq. As to the kind of experiment: EMSA; Hill n 5.1; EMSA: 34 mM Tris-HCl pH 7.5, 50 mM NaCl, 50 mM KCl, 50 mM NH4Cl, 11.4 mM EDTA, 12% glycerol, 30 C, 30 min, ~1 nM 32P-RNA, Kd in Hfq6; anisotropy: 10 mM Tris-HCl. Conditions: protein: recombinant; tags: untagged; chain copies: 6; label: 32P; stem-loops.
Series [8] addresses T1, Ec65. As to the kind of experiment: EMSA; Hill n 1.0; EMSA: 34 mM Tris-HCl pH 7.5, 50 mM NaCl, 50 mM KCl, 50 mM NH4Cl, 11.4 mM EDTA, 12% glycerol, 30 C, 30 min, ~1 nM 32P-RNA, Kd in Hfq6; anisotropy: 10 mM Tris-HCl. Conditions: protein: recombinant; tags: untagged; chain copies: 6; label: 32P; stem-loops.

B1: ChvR (structured_RNA)
RNA: GGCGGGGCCUACAUGUCGCGCAAGUCUCCGGAGGGCCAUUCCGAGGCGGGGCCCGCUCCAGCGUCCUCAUUGGAGCGGGCGUCU
In the case of B1, the Kd with Ec65 [1] turned out to be 20.2 ± 0.3 nM; with EcCc Hfq [2], 228 ± 84 nM; in the series with Ec Hfq (Hfq102) [3], 17.2 ± 1 nM; with Cc78 [4], 256 ± 25 nM.

B2: R157 (structured_RNA)
RNA: GGUGAGGCGCCGAGCGCCUCUGCCCUUCCUGGGCGUUUCCUCCCUAUGACUUUGUAGCCCGGUCUUCAUGGCCGGGCUUUCUUUUU
For the molecule B2, the Kd with Ec Hfq (Hfq102) [5] came out at 14.3 ± 0.1 nM; with Cc78 [6], 349 ± 7 nM; with EcCc Hfq [7], 55.7 ± 2.7 nM; in the series with Ec65 [8] it was 6.3 ± 1.1 nM.

Usually Kd stands for the equilibrium constant for the complex coming apart.
